# According to patent US20250352661A1 (MYTHIC THERAPEUTICS, published 2025):
# Numbering of substitutions follows the chain as printed. Numbers in names are those of the source.
# T1: LRRC15 on the surface of LRRC15+ cells (SAOS-2, U87MG) (UniProt Q8TF66 22-581, limits assumed)
# T1 sequence (looked up): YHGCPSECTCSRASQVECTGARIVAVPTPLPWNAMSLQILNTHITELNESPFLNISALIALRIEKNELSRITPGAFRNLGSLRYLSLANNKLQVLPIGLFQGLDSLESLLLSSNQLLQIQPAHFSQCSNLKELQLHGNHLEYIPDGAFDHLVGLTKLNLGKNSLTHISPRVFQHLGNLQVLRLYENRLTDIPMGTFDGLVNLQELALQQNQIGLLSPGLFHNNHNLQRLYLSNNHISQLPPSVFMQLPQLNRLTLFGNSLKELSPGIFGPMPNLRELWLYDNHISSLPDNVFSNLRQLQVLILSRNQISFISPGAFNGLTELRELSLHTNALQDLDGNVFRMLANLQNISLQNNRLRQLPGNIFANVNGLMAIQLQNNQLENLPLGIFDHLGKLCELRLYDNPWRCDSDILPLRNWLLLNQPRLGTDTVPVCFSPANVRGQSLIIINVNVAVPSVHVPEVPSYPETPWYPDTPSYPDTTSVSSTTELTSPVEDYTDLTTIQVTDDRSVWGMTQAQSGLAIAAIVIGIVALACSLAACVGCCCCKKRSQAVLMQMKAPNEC
# T2: Human LRRC15 Protein, His Tag (Acro Biosystems) (human, UniProt Q8TF66 22-538, limits assumed)
# T2 construct: Bought protein with His tag
# T2 sequence (looked up): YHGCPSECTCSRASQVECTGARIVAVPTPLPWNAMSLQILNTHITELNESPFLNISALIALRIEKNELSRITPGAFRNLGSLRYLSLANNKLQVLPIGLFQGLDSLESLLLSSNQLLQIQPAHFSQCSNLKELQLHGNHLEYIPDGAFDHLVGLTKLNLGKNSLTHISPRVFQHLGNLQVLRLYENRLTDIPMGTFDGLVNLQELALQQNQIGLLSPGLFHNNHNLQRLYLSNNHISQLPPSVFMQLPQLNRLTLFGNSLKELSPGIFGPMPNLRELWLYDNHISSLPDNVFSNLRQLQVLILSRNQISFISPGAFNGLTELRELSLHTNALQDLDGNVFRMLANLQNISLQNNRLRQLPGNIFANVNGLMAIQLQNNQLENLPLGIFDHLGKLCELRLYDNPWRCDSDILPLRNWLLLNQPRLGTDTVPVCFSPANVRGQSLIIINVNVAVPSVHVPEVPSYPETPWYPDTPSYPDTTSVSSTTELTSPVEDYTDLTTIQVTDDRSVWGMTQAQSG
# B1: MYT8417 (antibody, V domains shown)
# VH: EVQLVESGGGLVQPGGSLRLSCTASGLDFRRTNYICWVRQAPGKGLEWVGCIYIADVVHYYASWAKGRFTFSRDTSKNTVYLQMNSLRAEDTAVYYCARGADGGFVYGMDLWGQGTLVTVSS
# VL: EIVMTQSPSTLSASVGDRVIITCQASQSIGNYLSWYQQKPGKAPKRLIYSASTLPSGVPSRFSGSGSGAEFTLTISSLQPDDFATYYCQNNYWLAHYGHPFGQGTKLTVL
# B2: MYT9507 (antibody, V domains shown)
# VH: EVQLVESGGGLVQPGGSLRLSCTASGFSFSSSHWICWVRQAPGKGLEWVGCIYAGSIGSTYYASWAKGRFTISRDTSKNTVYLQMNSLRAEDTAVYYCARAPNDIYNYYFNLWGQGTLVTVSS
# VL: EIVMTQSPSTLSASVGDRVIITCDASENIYNYLAWYQQKPGKAPKLLIYYASTLASGVPSRFSGSGSGAEFTLTISSLQPDDFATYYCQSGYVSKSSTFGQGTKLTVL
# B3: MYT9523 (antibody, V domains shown)
# VH: B2 VH
# VL: B2 VL with D24Q, A55D
# B4: MYT8483 (antibody, IgG1, V domains shown)
# VH: EVQLVESGGGLVQPGGSLRLSCTASGFSFSGSYWICWVRQAPGKGLEWVGCINGGSLDITYYASWAKGRFTISRDTSKNTVYLQKTSLRAEDTAVYYCASDTSYTAYGNFYFNLWGQGTLVTVSS
# VL: EIVMTQSPSPLSASVGDRVIITCQSSQSVLNNNWLAWYQQKPGKAPKLLIYDASSLASGVPSRFSGSGSGAEFTLTISSLQPDDFATYYCQGEFSCGSADCNAFGQGTKLTVL
# B5: MYT2737 (antibody, V domains shown)
# VH: EVQLVQSGAEVKKPGASVKVSCKASGYKFSSYWIEWVKQAPGQGLEWIGEILPGSDTTNYNEKFKDRATFTSDTSINTAYMELSRLRSDDTAVYYCARDRGNYRAWFGYWGQGTLVTVSS
# VL: DIQMTQSPSSLSASVGDRVTITCRASQDISNYLNWYQQKPGGAVKFLIYHTSRLHSGVPSRFSGSGSGTDYTLTISSLQPEDFATYFCQQGEALPWTFGGGTKVEIK
# B6: MYT8410 (antibody, V domains shown)
# VH: B1 VH with Y53H, F105H, V106H
# VL: B1 VL with H96G
# notes: hu15G7 VH Y53H, F105H, V106H; human Fc
# B7: MYT8402 (antibody, V domains shown)
# VH: B1 VH with Y34H, Y53H, G104H
# VL: B1 VL with H96G
# notes: hu15G7 VH Y34H, Y53H, G104H; human Fc
# B8: MYT8408 (antibody, V domains shown)
# VH: B1 VH with Y53H, G104H, F105H
# VL: B1 VL with H96G
# notes: hu15G7 VH Y53H, G104H, F105H; human Fc
# B9: MYT8407 (antibody, V domains shown)
# VH: B1 VH with Y34H, F105H, V106H
# VL: B1 VL with H96G
# notes: hu15G7 VH Y34H, F105H, V106H; human Fc
# B10: MYT8405 (antibody, V domains shown)
# VH: B1 VH with Y34H, G104H, F105H
# VL: B1 VL with H96G
# notes: hu15G7 VH Y34H, G104H, F105H; human Fc
# B11: MYT8411 (antibody, V domains shown)
# VH: B1 VH with G104H, F105H, V106H
# VL: B1 VL with H96G
# notes: hu15G7 VH G104H, F105H, V106H; human Fc
# B12: MYT8401 (antibody, V domains shown)
# VH: B1 VH with F105H, V106H
# VL: B1 VL with H96G
# notes: hu15G7 VH F105H, V106H; human Fc
# B13: MYT8403 (antibody, V domains shown)
# VH: B1 VH with Y34H, Y53H, F105H
# VL: B1 VL with H96G
# notes: hu15G7 VH Y34H, Y53H, F105H; human Fc
# B14: MYT8406 (antibody, V domains shown)
# VH: B1 VH with Y34H, G104H, V106H
# VL: B1 VL with H96G
# notes: hu15G7 VH Y34H, G104H, V106H; human Fc
# B15: MYT8409 (antibody, V domains shown)
# VH: B1 VH with Y53H, G104H, V106H
# VL: B1 VL with H96G
# notes: hu15G7 VH Y53H, G104H, V106H; human Fc
# B16: MYT8418 (antibody, V domains shown)
# VH: B1 VH
# VL: B1 VL with G30H, Y32H, H96G
# notes: hu15G7 VL G30H, Y32H; human Fc
# B17: MYT8414 (antibody, V domains shown)
# VH: B1 VH
# VL: B1 VL with Y32H, H96G
# notes: hu15G7 VL Y32H; human Fc
# B18: MYT8413 (antibody, V domains shown)
# VH: B1 VH
# VL: B1 VL with G30H, H96G
# notes: hu15G7 VL G30H; human Fc
# Molecular target: T1, LRRC15 on the surface of LRRC15+ cells …
# Assay: cell-based or functional assay
Binder,"Internalization in SAOS-2 cells (10 nM, 24 hours), FOB = fold over background (IgG control)","Internalization in SAOS-2 cells (10 nM, 24 hours), FOS = fold over samrotamab"
B1,2.68 fold over background (IgG control),1.04 fold over samrotamab
B2,3.16 fold over background (IgG control),1.33 fold over samrotamab
B3,3.23 fold over background (IgG control),1.37 fold over samrotamab
B4,2.62 fold over background (IgG control),1 fold over samrotamab
B5,2.01 fold over background (IgG control),0.62 fold over samrotamab

# Molecular target: T1, LRRC15 on the surface of LRRC15+ cells …
# Assay: cell-based or functional assay
# Remark: another data set of the same source
Binder,"Internalization in U87MG cells (10 nM, 24 hours), FOB = fold over background (IgG control)","Internalization in U87MG cells (10 nM, 24 hours), FOS = fold over samrotamab"
B1,2.76 fold over background (IgG control),2.06 fold over samrotamab
B2,3.58 fold over background (IgG control),3.01 fold over samrotamab
B3,3.05 fold over background (IgG control),2.4 fold over samrotamab
B4,2.25 fold over background (IgG control),1.45 fold over samrotamab
B5,2.07 fold over background (IgG control),1.24 fold over samrotamab

# Molecular target: T2, Human LRRC15 Protein, His Tag (Acro …)
# Assay: BLI; dissociation pH 7.4 black, pH 5.4 grey [D00009 FIG. 1G]
row,Binder,binding result
1,B6,no binding (tested: 50 nM LRRC15)
2,B7,no binding (tested: 50 nM LRRC15)
3,B8,no binding (tested: 50 nM LRRC15)
4,B9,no binding (tested: 50 nM LRRC15)
5,B10,binds
6,B11,binds
7,B12,binds
8,B13,no binding (tested: 50 nM LRRC15)
9,B14,no binding (tested: 50 nM LRRC15)
10,B15,no binding (tested: 50 nM LRRC15)

# Molecular target: T2, Human LRRC15 Protein, His Tag (Acro …)
# Assay: BLI; dissociation pH 7.4 black, pH 5.4 grey [D00010 FIG. 1H]
# Description: For each individual plot, antigen binding proteins were captured on anti-human Fc biosensors and associated with LRRC15 at pH 7.4. Dissociation was at pH 7.4 (black) or pH 5.4 (grey). Major X-axis ticks=100 seconds, with left dashed vertical line=0 seconds. Major Y-axis ticks=0.5 nm and octet plots are shown MYT5712 and MYT6080-MYT6121.
# Multiple LRRC15-binding monoclonal antibodies have been described in the literature and can be used as a template for engineering pH-dependent binding. We selected discovery RabMAb clone 15G7 (rabbit VH SEQ ID NO: 378, rabbit VL SEQ ID NO: 451; humanized VH SEQ ID NO: 382, humanized VL SEQ ID NO: 455) as a LRRC15-binding monoclonal antibody for pH-engineering via histidine scanning. […] To generate pH-dependent sequence variants, individual amino acid residues within the heavy chain CDRs were systematically substituted with a histidine (or alanine if H was already present in a given position; e.g., MYT6099), one at a time (rabbit, MYT6080-6121). Desirable mutations were transferred to a humanized framework (humanized, MYT 8387-8411). After allowing for four days of protein expression, cell culture supernatants were collected, quantified by SDS-PAGE analysis, and the pH dependence of the variant was evaluated using biolayer interferometry (BLI) on an Octet RED 96e instrument. Briefly, cell culture supernatants were diluted based on qualitative expression level of the variant determined by visual examination of SDS-PAGE gels, 5 μL of cell culture supernatant was diluted into 195 μL of 1×PBST, pH 7.4 for high expressors, 25 μL of cell culture supernatant was diluted into 175 μL of 1×PBST, pH 7.4 for medium expressors and 100 μL of cell culture supernatant was diluted into 100 μL of 1×PBST, pH 7.4 for low expressors for loading onto the sensor tips.
row,Binder,binding result
1,B16,binds
2,B17,binds
3,B18,binds
